pIC50: −log10 of the molar value. A value given as a limit tells only on which side of the number the result lay.

The target in one test is HLA-A*02:01. As to the kind of experiment: IEDB peptide-MHC binding, cellular MHC/competitive/fluorescence; ≥ and ≤ were set here for values at or beyond the usual limits of such assays. The following applies: source organism: Vaccinia virus WR.
In general, pIC50 refers to −log10 of the IC50, conventionally taken in molar units. YVSTGESSI had a negative logarithm of the IC50 (pIC50) of 4.94.

HIIIVALTI had a pIC50 of 5.11.

Take STLPNKSDV: the pIC50 was at most 4.15.

DVEDLLSYYV: the pIC50 is 5.29.

The sequence VQLVDAIDNI showed a pIC50 of 4.88.

CMSANEAAIT had a pIC50 of 5.17.

Sequence DIRTLLPILL showed a negative logarithm of the IC50 (pIC50) of 4.30.

On to LAGYILTVL, for which the negative-log IC50 (pIC50) was 4.93.

HLRDQSIKI gave a pIC50 of 5.14.

As to DIYYNGNKML, the negative logarithm of the IC50 (pIC50) was 4.71.

As for EVFNREYNNV, the negative logarithm of the IC50 (pIC50) was 4.88.

The target of another test is HLA-A*02:02. As to the kind of experiment: IEDB peptide-MHC binding, purified MHC/competitive/radioactivity; ≥ and ≤ were set here for values at or beyond the usual limits of such assays. The following applies: source organism: Hepatitis B virus.
As to GLSPTVWLSV, the pIC50 is 7.64.

In a further test the target is HLA-A*02:03. Described as above. The following applies: source organism: Hepatitis B virus.
In the case of SLNFLGGTTV, the pIC50 was 9.17.

Take SILSPFLPLL: the pIC50 is 7.80.

The target of the next test is HLA-A*02:01. The description is as above. The following applies: source organism: Hepatitis B virus.
In the case of GLSPTVWLSV, the pIC50 is 7.54.

Staying with this test, now noted: source organism: Mammarenavirus brazilense.
Take CMVNHSTYYV: the negative-log IC50 (pIC50) is 7.14.

As for ALIAVSLIA, the negative-log IC50 (pIC50) is 5.96.

As for TLVDICFWST, the pIC50 was 7.89.

The same test, now with this note: source organism: Mammarenavirus choriomeningitidis.
With SLAADLEKL, the negative logarithm of the IC50 (pIC50) is 7.35.

As for SIISHNFCNL, the negative-log IC50 (pIC50) was 5.43.

The same test, now with this note: source organism: Mammarenavirus juninense.
For the sequence FQTVSFSMV, the pIC50 was 6.74.

Take FMISFDDIAV: the negative-log IC50 (pIC50) is 8.27.

In the case of KMKCFGNTAV, the pIC50 was 5.53.

The same test, now with this note: source organism: Mammarenavirus lassaense.
Turning to SIISTFHLSI, the pIC50 is 6.15.

For RMAWGGSYIA, the pIC50 was 6.53.

As for NLYDHALMSI, the pIC50 was 8.41.

The test is the same for the next values; noted with them: source organism: Mammarenavirus machupoense.
In the case of ALLPLSLLFL, the pIC50 was 8.33.

FLPKAAFAL: the negative-log IC50 (pIC50) was 7.52.

With FLQEALNIAL, the pIC50 is 7.80.

Regarding SLLPLSLLFL, the pIC50 is 8.14.

As to ALTIACMTV, the pIC50 is 6.48.

On to FTASLFLHLV, for which the pIC50 was 7.12.

The same test, now with this note: source organism: Mammarenavirus whitewaterense.
For FLKMRRIFGV, the pIC50 was 7.19.

As for NASYITPYV, the pIC50 is 6.58.

The test is the same for the next values; noted with them: source organism: Vaccinia virus WR.
Regarding SIDIETESV, the pIC50 is 6.63.

For GLDLENLYAV, the pIC50 is 8.46.

NLVKWPLLNI: the pIC50 was 6.84.

Consider YLLSLFSTLV, for which the negative-log IC50 (pIC50) is 9.49.

Regarding VTMVDKPTEL, the pIC50 is 5.47.

As to SIRFHIKEL, the pIC50 is 5.81.

In the case of IVLSNTSTAV, the negative logarithm of the IC50 (pIC50) is 6.14.

Turning to TIDFKLKYFL, the negative logarithm of the IC50 (pIC50) was 5.52.

In the case of AITDAAVAV, the negative logarithm of the IC50 (pIC50) is 5.83.

For the sequence IVFNLPVSKV, the pIC50 was 7.28.

Regarding TIDQTANVV, the pIC50 was 6.26.

For LIFFVIILA, the pIC50 is 6.63.

On to YTDEVYDYL, for which the negative-log IC50 (pIC50) was 7.68.

For the sequence AVLLTYFCFV, the negative logarithm of the IC50 (pIC50) is 8.47.

In the case of FILIFNIIV, the pIC50 was 8.49.

In the case of KLFTDNNFL, the negative-log IC50 (pIC50) is 8.70.

As to LLFILFYFA, the pIC50 was 7.07.

Turning to TVIHLEWLL, the negative logarithm of the IC50 (pIC50) was 8.25.

On to ILVCYILYI, for which the pIC50 is 7.72.

For YTYLIGEKI, the pIC50 is 5.30.

As to MTFGDIPLV, the pIC50 is 9.01.

As for FVILYLLAV, the negative-log IC50 (pIC50) was 8.11.

Turning to AAMYQYIFL, the pIC50 is 6.16.

Turning to EATYHIIIVA, the pIC50 was 5.67.

For ILAIIFLVL, the negative logarithm of the IC50 (pIC50) is 6.88.

In the case of SQEVRKYFCV, the pIC50 was 5.92.

As to SLQTCAGVI, the negative-log IC50 (pIC50) is 5.55.

On to SMLGIWFFT, for which the pIC50 is 9.19.

ILDDNLYKV: the pIC50 was 8.89.

For FLKDVMVEI, the pIC50 is 8.52.

Consider YTALHYYYL, for which the pIC50 was 7.77.

For YLTAIQDFI, the negative logarithm of the IC50 (pIC50) was 8.72.

For ILSLFLISLV, the negative logarithm of the IC50 (pIC50) is 8.54.

For the sequence FLLRSIIVA, the pIC50 was 8.51.

Consider VLPNKVRIFI, for which the negative logarithm of the IC50 (pIC50) is 5.88.

As to FLFYPSMFTL, the negative-log IC50 (pIC50) is 9.64.

Turning to KLYLVDYGLV, the pIC50 was 7.70.

Take WLIGFDFDV: the pIC50 is 10.22.

TLDTAIFTDA: the pIC50 was 7.30.

With CVLTTIDGV, the negative-log IC50 (pIC50) is 6.53.

Consider NVDNLIMIV, for which the pIC50 is 6.77.

As for SVVIYDFLV, the pIC50 was 8.96.

LQISQCQRI: the negative-log IC50 (pIC50) is 5.86.

RVFNEYGFVL: the pIC50 was 6.27.

Regarding SLFSLLLVI, the pIC50 is 8.24.

As to KISLDISQL, the pIC50 is 5.64.

As for KLYTIVSTL, the pIC50 is 7.82.

Consider FVFRSPFIVI, for which the negative-log IC50 (pIC50) is 6.77.

Turning to FVCISYYFT, the pIC50 was 6.00.

In the case of TLFDDELYSI, the pIC50 was 8.96.

With NAPIKTFML, the pIC50 was 5.47.

For LTVLGLGLSL, the negative logarithm of the IC50 (pIC50) is 5.71.

Take EIIPSSIPV: the pIC50 is 5.33.

Consider TINNLKMML, for which the pIC50 was 6.71.

Regarding KLQAAVMET, the pIC50 was 6.44.

For the sequence KIADDRIVV, the negative logarithm of the IC50 (pIC50) was 8.18.

Take NVYPGVWNT: the pIC50 was 6.08.

Regarding SLDVINYLI, the pIC50 is 9.26.

Regarding FAAELTIGV, the negative logarithm of the IC50 (pIC50) was 9.49.
